In test [1] the target is Mb-1 (parental minibinder), N-terminal polyhistidine tag. Kind of test: SPR. (In SPR one partner is held on a chip, and binding of the other changes the refractive index at the surface.)
The target of test [2] is Mb-4 (parental minibinder), N-terminal polyhistidine tag. Kind of test: SPR.
In test [3] the target is all four evolved minibinders (purified proteins). Kind of test: SPR.
Test [4] concerns the target evolved Mb-1 (affinity matured variant), N-terminal polyhistidine tag. Kind of test: SPR.
The target of test [5] is Mb-1 A14V displayed on the yeast cell surface (minibinder-HA-AGA2). Kind of test: flow cytometry on cells. For orientation: Flow cytometry measures light scatter and fluorescence of single cells or particles in a stream.
Test [6] has as its target Mb-1 P29S displayed on the yeast cell surface (minibinder-HA-AGA2). Kind of test: flow cytometry on cells.

Bounds are passed on as bounds.

B1: human IL-7Rα extracellular domain (residues 37-231) with a C-terminal C-tag (domain or fragment)
chain: DYSFSCYSQLEVNGSQHSLTCAFEDPDVNITNLEFEICGALVEVKCLNFRKLQEIYFIETKKFLLIGKSNICVKVGEKSLTCKKIDLTTIVKPEAPFDLSVVYREGANDFVVTFNTSHLQKKYVKVLMHDVAYRQEKDENKWTHVNLSSTKLTLLQRKLQPAAMYEIKVRSIPDHYFKGFWSEWSPSYYFRTPEI
Broadly, the Kd is the concentration at which binding is half-saturated. For the molecule B1, the Kd in test [1] is greater than 1000 nM; in test [2], 7.8 nM; in test [3], 0.56 to 34 nM; in test [4] it was 2.1 nM.

B2: human IL-7Rα fused to a human IgG single-chain Fc tag (Fc fusion)
chain: ESGYAQNGDLEDAELDDYSFSCYSQLEVNGSQHSLTCAFEDPDVNITNLEFEICGALVEVKCLNFRKLQEIYFIETKKFLLIGKSNICVKVGEKSLTCKKIDLTTIVKPEAPFDLSVVYREGANDFVVTFNTSHLQKKYVKVLMHDVAYRQEKDENKWTHVNLSSTKLTLLQRKLQPAAMYEIKVRSIPDHYFKGFWSEWSPSYYFRTPEINNSSGEMD
With B2, the values for the Δ-log10[KD] against parental Mb-1 in test [5] and in test [6] were 1.18 and 0.03, respectively.
